This is an account of results in US20260217793A1 (Chugai, published 2026).

The chains are these.
B1: IL6R-BP552/IL6R-L (antibody, human IgG1, kappa)
heavy: QVQLQESGPGLVKPSETLSLTCAVSGHSISHDHAWSWVRQPPGEGLEWIGFISYSGITNYNPSLQGRVTISRDNSKNTLYLQMNSLRAEDTAVYYCARSLARTTAMDYWGEGTLVTVSSASTKGPSVFPLAPSSKSTSGGTAALGCLVKDYFPEPVTVSWNSGALTSGVHTFPAVLQSSGLYSLSSVVTVPSSSLGTQTYICNVNHKPSNTKVDKKVEPKSCDKTHTCPPCPAPDLLGDDSVFLFPPKPKDTLMISRTPEVTCVVIDVAEEDGDVKFNWYVDGVEVHNAKTKPREEQDNSTYRVVSVLTVLHQDWLNGKEYKCKVSNKALPRPIEKTISKAKGQPREPQVYTLPPSRDELTKNQVSLTCLVKGFYPSDIAVEWESNGQPENNYKTTPPVLDSDGSFFLYSKLTVDKSRWQQGNVFSCSVMHEALHNHYTQESLSLSP
light: not shown
B2: IL6R-BP553/IL6R-L (antibody, human IgG1, kappa)
heavy: QVQLQESGPGLVKPSETLSLTCAVSGHSISHDHAWSWVRQPPGEGLEWIGFISYSGITNYNPSLQGRVTISRDNSKNTLYLQMNSLRAEDTAVYYCARSLARTTAMDYWGEGTLVTVSSASTKGPSVFPLAPSSKSTSGGTAALGCLVKDYFPEPVTVSWNSGALTSGVHTFPAVLQSSGLYSLSSVVTVPSSSLGTQTYICNVNHKPSNTKVDKKVEPKSCDKTHTCPPCPAPDLLGDDSVFLFPPKPKDTLMISRTPEVTCVVIDVAEEDGDVKFNWYVDGVEVHNAKTKPREEQYNSTYRVVSVLTVLHQDWLNGKEYKCKVSNKALPRPIEKTISKAKGQPREPQVYTLPPSRDELTKNQVSLTCLVKGFYPSDIAVEWESNGQPENNYKTTPPVLDSDGSFFLYSKLTVDKSRWQQGNVFSCSVMHEALHNHYTQESLSLSP
light: not shown
B3: IL6R-BP535/IL6R-L (antibody, human IgG1, kappa)
heavy: QVQLQESGPGLVKPSETLSLTCAVSGHSISHDHAWSWVRQPPGEGLEWIGFISYSGITNYNPSLQGRVTISRDNSKNTLYLQMNSLRAEDTAVYYCARSLARTTAMDYWGEGTLVTVSSASTKGPSVFPLAPSSKSTSGGTAALGCLVKDYFPEPVTVSWNSGALTSGVHTFPAVLQSSGLYSLSSVVTVPSSSLGTQTYICNVNHKPSNTKVDKKVEPKSCDKTHTCPPCPAPDLLGDDSVFLFPPKPKDTLMISRTPEVTCVVIDVGEEDGEVKFNWYVDGVEVHNAKTKPREEQDNSTYRVVSVLTVLHQDWLNGKEYKCKVSNKGLPRPIEKTISKAKGQPREPQVYTLPPSRDELTKNQVSLTCLVKGFYPSDIAVEWESNGQPENNYKTTPMVLDSDGSFFLYSKLTVDKSRWQQGNVFSCSVMHEALHNHYTQESLSLSP
light: not shown
B4: IL6R-BP561/IL6R-L (antibody, human IgG1, kappa)
heavy: QVQLQESGPGLVKPSETLSLTCAVSGHSISHDHAWSWVRQPPGEGLEWIGFISYSGITNYNPSLQGRVTISRDNSKNTLYLQMNSLRAEDTAVYYCARSLARTTAMDYWGEGTLVTVSSASTKGPSVFPLAPSSKSTSGGTAALGCLVKDYFPEPVTVSWNSGALTSGVHTFPAVLQSSGLYSLSSVVTVPSSSLGTQTYICNVNHKPSNTKVDKKVEPKSCDKTHTCPPCPAPDLLGDDSVFLFPPKPKDTLMISRTPEVTCVVVDVSDEDGDVKFNWYVDGVEVHNAKTKPREEQDNSTYRVVSVLTVLHQDWLNGKEYKCKVSNKALPRPIEKTISKAKGQPREPQVYTLPPSRDELTKNQVSLTCLVKGFYPSDIAVEWESNGQPENNYKTTPPVLDSDGSFFLYSKLTVDKSRWQQGNVFSCSVMHEALHNHYTQESLSLSP
light: not shown
B5: IL6R-BP555/IL6R-L (antibody, human IgG1, kappa)
heavy: QVQLQESGPGLVKPSETLSLTCAVSGHSISHDHAWSWVRQPPGEGLEWIGFISYSGITNYNPSLQGRVTISRDNSKNTLYLQMNSLRAEDTAVYYCARSLARTTAMDYWGEGTLVTVSSASTKGPSVFPLAPSSKSTSGGTAALGCLVKDYFPEPVTVSWNSGALTSGVHTFPAVLQSSGLYSLSSVVTVPSSSLGTQTYICNVNHKPSNTKVDKKVEPKSCDKTHTCPPCPAPELLGDDSVFLFPPKPKDTLMISRTPEVTCVVIDVAEEDGDVKFNWYVDGVEVHNAKTKPREEQDNSTYRVVSVLTVLHQDWLNGKEYKCKVSNKALPRPIEKTISKAKGQPREPQVYTLPPSRDELTKNQVSLTCLVKGFYPSDIAVEWESNGQPENNYKTTPPVLDSDGSFFLYSKLTVDKSRWQQGNVFSCSVMHEALHNHYTQESLSLSP
light: not shown
B6: IL6R-BP531/IL6R-L (antibody, human IgG1, kappa)
heavy: QVQLQESGPGLVKPSETLSLTCAVSGHSISHDHAWSWVRQPPGEGLEWIGFISYSGITNYNPSLQGRVTISRDNSKNTLYLQMNSLRAEDTAVYYCARSLARTTAMDYWGEGTLVTVSSASTKGPSVFPLAPSSKSTSGGTAALGCLVKDYFPEPVTVSWNSGALTSGVHTFPAVLQSSGLYSLSSVVTVPSSSLGTQTYICNVNHKPSNTKVDKKVEPKSCDKTHTCPPCPAPDLLGDDSVFLFPPKPKDTLMISRTPEVTCVVIDVGEEDGEVKFNWYVDGVEVHNAKTKPREEQDNSTYRVVSVLTVLHQDWLNGKEYKCKVSNKALPRPIEKTISKAKGQPREPQVYTLPPSRDELTKNQVSLTCLVKGFYPSDIAVEWESNGQPENNYKTTPMVLDSDGSFFLYSKLTVDKSRWQQGNVFSCSVMHEALHNHYTQESLSLSP
light: not shown
B7: IL6R-BP554/IL6R-L (antibody, human IgG1, kappa)
heavy: QVQLQESGPGLVKPSETLSLTCAVSGHSISHDHAWSWVRQPPGEGLEWIGFISYSGITNYNPSLQGRVTISRDNSKNTLYLQMNSLRAEDTAVYYCARSLARTTAMDYWGEGTLVTVSSASTKGPSVFPLAPSSKSTSGGTAALGCLVKDYFPEPVTVSWNSGALTSGVHTFPAVLQSSGLYSLSSVVTVPSSSLGTQTYICNVNHKPSNTKVDKKVEPKSCDKTHTCPPCPAPELLGDDSVFLFPPKPKDTLMISRTPEVTCVVIDVAEEDGDVKFNWYVDGVEVHNAKTKPREEQYNSTYRVVSVLTVLHQDWLNGKEYKCKVSNKALPRPIEKTISKAKGQPREPQVYTLPPSRDELTKNQVSLTCLVKGFYPSDIAVEWESNGQPENNYKTTPPVLDSDGSFFLYSKLTVDKSRWQQGNVFSCSVMHEALHNHYTQESLSLSP
light: not shown
B8: IL6R-BP537/IL6R-L (antibody, human IgG1, kappa)
heavy: QVQLQESGPGLVKPSETLSLTCAVSGHSISHDHAWSWVRQPPGEGLEWIGFISYSGITNYNPSLQGRVTISRDNSKNTLYLQMNSLRAEDTAVYYCARSLARTTAMDYWGEGTLVTVSSASTKGPSVFPLAPSSKSTSGGTAALGCLVKDYFPEPVTVSWNSGALTSGVHTFPAVLQSSGLYSLSSVVTVPSSSLGTQTYICNVNHKPSNTKVDKKVEPKSCDKTHTCPPCPAPELLGDDSVFLFPPKPKDTLMISRTPEVTCVVIDVGEEDGEVKFNWYVDGVEVHNAKTKPREEQYNSTYRVVSVLTVLHQDWLNGKEYKCKVSNKALPRPIEKTISKAKGQPREPQVYTLPPSRDELTKNQVSLTCLVKGFYPSDIAVEWESNGQPENNYKTTPPVLDSDGSFFLYSKLTVDKSRWQQGNVFSCSVMHEALHNHYTQESLSLSP
light: not shown
B9: IL6R-BP556/IL6R-L (antibody, human IgG1, kappa)
heavy: QVQLQESGPGLVKPSETLSLTCAVSGHSISHDHAWSWVRQPPGEGLEWIGFISYSGITNYNPSLQGRVTISRDNSKNTLYLQMNSLRAEDTAVYYCARSLARTTAMDYWGEGTLVTVSSASTKGPSVFPLAPSSKSTSGGTAALGCLVKDYFPEPVTVSWNSGALTSGVHTFPAVLQSSGLYSLSSVVTVPSSSLGTQTYICNVNHKPSNTKVDKKVEPKSCDKTHTCPPCPAPELLGDDSVFLFPPKPKDTLMISRTPEVTCVVIDVGEEDGEVKFNWYVDGVEVHNAKTKPREEQDNSTYRVVSVLTVLHQDWLNGKEYKCKVSNKALPRPIEKTISKAKGQPREPQVYTLPPSRDELTKNQVSLTCLVKGFYPSDIAVEWESNGQPENNYKTTPPVLDSDGSFFLYSKLTVDKSRWQQGNVFSCSVMHEALHNHYTQESLSLSP
light: not shown
B10: IL6R-BP532/IL6R-L (antibody, human IgG1, kappa)
heavy: QVQLQESGPGLVKPSETLSLTCAVSGHSISHDHAWSWVRQPPGEGLEWIGFISYSGITNYNPSLQGRVTISRDNSKNTLYLQMNSLRAEDTAVYYCARSLARTTAMDYWGEGTLVTVSSASTKGPSVFPLAPSSKSTSGGTAALGCLVKDYFPEPVTVSWNSGALTSGVHTFPAVLQSSGLYSLSSVVTVPSSSLGTQTYICNVNHKPSNTKVDKKVEPKSCDKTHTCPPCPAPDLLGDDSVFLFPPKPKDTLMISRTPEVTCVVIDVSEEDGEVKFNWYVDGVEVHNAKTKPREEQDNSTYRVVSVLTVLHQDWLNGKEYKCKVSNKALPRPIEKTISKAKGQPREPQVYTLPPSRDELTKNQVSLTCLVKGFYPSDIAVEWESNGQPENNYKTTPMVLDSDGSFFLYSKLTVDKSRWQQGNVFSCSVMHEALHNHYTQESLSLSP
light: not shown
B11: IL6R-BP534/IL6R-L (antibody, human IgG1, kappa)
heavy: QVQLQESGPGLVKPSETLSLTCAVSGHSISHDHAWSWVRQPPGEGLEWIGFISYSGITNYNPSLQGRVTISRDNSKNTLYLQMNSLRAEDTAVYYCARSLARTTAMDYWGEGTLVTVSSASTKGPSVFPLAPSSKSTSGGTAALGCLVKDYFPEPVTVSWNSGALTSGVHTFPAVLQSSGLYSLSSVVTVPSSSLGTQTYICNVNHKPSNTKVDKKVEPKSCDKTHTCPPCPAPDLLGDDSVFLFPPKPKDTLMISRTPEVTCVVIDVSEEDGEVKFNWYVDGVEVHNAKTKPREEQDNSTYRVVSVLTVLHQDWLNGKEYKCKVSNKALPRPIEKTISKAKGQPREPQVYTLPPSRDELTKNQVSLTCLVKGFYPSDIAVEWESNGQPENNYKTTPLVLDSDGSFFLYSKLTVDKSRWQQGNVFSCSVMHEALHNHYTQESLSLSP
light: not shown

The target of the experiment is human FcγRIIIa type V (Val158) extracellular domain with C-terminal His tag (human, UniProt P08637 17-208). Kind of experiment: SPR.
Chain of human FcγRIIIa type V (Val158) extracellular domain with C-terminal His tag (P08637 17-208 F176V): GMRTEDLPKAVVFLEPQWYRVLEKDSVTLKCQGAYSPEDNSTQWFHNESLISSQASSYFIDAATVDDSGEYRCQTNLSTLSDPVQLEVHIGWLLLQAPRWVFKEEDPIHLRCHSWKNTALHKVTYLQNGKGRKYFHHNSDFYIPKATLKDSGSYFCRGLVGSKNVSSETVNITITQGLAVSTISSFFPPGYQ
Broadly, the Kd is the free concentration of one partner at which half of the binding sites on the other are occupied at equilibrium, for simple one-to-one binding. A lower Kd goes with tighter binding. B1: the Kd was found to be 30 µM. The result for B2 reads 20 µM. The result for B3 reads 33 µM. The result for B4 reads 37 µM. As for B5, the Kd was 30 µM. B6: binding was put at a Kd of 27 µM. The result for B7 reads 24 µM.

For the molecule B8, the affinity, expressed as Kd, was 36 µM. The result for B9 reads 60 µM. The result for B10 reads 26 µM.

Molecule B11 yielded a Kd of 25 µM.
